In patent US20240398949A1 (OSLO UNIVERSITETSSYKEHUS HF, published 2024):

Columns and labels:
[1] = target: T1, extracellular domain of p95HER2 peptide with a polyhistidine-tag in the C-terminus; assay: SPR (Biacore T200, 25° C.), antibody immobilized on CM5 chip, peptide as analyte 0.6 to 2500 nM, 1:1 model
T1 construct: Used as analyte in SPR
Method: SPR was performed as described previously in Gomes & Andreu, Journal of Immunological Methods 259:217-230, 2002. […] The extracellular domain of p95HER2 peptide with a polyhistidine-tag in the C-terminus (SEQ ID NO: 19) was used as analyte with serial dilutions from 0.6 to 2500 nM. […] (SEQ ID NO: 19)
Kinetics of molecular interaction were processed by global curve fitting to the 1:1 bimolecular interaction model. Biacore T200 (GE Healthcare) was used to perform the experiment and all procedures were conducted at 25° C.

[2] = target: T2, peptide 26 (FIGURE 3 d/e); assay: peptide array on cellulose membrane, double-alanine substitution series, signal intensity (area under curve), duplicate spots
T2 peptide: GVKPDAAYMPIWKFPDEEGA

[3] = target: T3, peptide 33 (FIGURE 3 d/e); assay: as above
T3 construct: marked KF under the bar
T3 peptide: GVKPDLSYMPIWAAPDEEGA

[4] = target: T4, peptide 25 (FIGURE 3 d/e); assay: as above
T4 peptide: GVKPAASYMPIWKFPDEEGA

[5] = target: T5, peptide 39 (FIGURE 3 d/e); assay: as above
T5 peptide: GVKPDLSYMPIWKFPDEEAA

[6] = target: T6, peptide 30 (FIGURE 3 d/e); assay: as above
T6 construct: marked PI under the bar
T6 peptide: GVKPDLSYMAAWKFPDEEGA

[7] = target: T7, peptide 34 (FIGURE 3 d/e); assay: as above
T7 construct: marked FP under the bar
T7 peptide: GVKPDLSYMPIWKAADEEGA

[8] = target: T8, peptide 35 (FIGURE 3 d/e); assay: as above
T8 construct: marked PD under the bar
T8 peptide: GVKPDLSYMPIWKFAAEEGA

[9] = target: T9, peptide 36 (FIGURE 3 d/e); assay: as above
T9 construct: marked DE under the bar
T9 peptide: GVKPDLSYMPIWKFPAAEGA

[10] = target: T10, peptide 28 (FIGURE 3 d/e); assay: as above
T10 peptide: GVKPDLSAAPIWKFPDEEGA

[11] = target: T11, peptide 24 (FIGURE 3 d/e); assay: as above
T11 peptide: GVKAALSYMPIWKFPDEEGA

[12] = target: T12, peptide 31 (FIGURE 3 d/e); assay: as above
T12 construct: marked IW under the bar
T12 peptide: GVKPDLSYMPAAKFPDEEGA

[13] = target: T13, peptide 21 (FIGURE 3 d/e); assay: as above
T13 peptide: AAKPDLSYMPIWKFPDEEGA

[14] = target: T14, peptide 27 (FIGURE 3 d/e); assay: as above
T14 peptide: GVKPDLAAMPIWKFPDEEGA

[15] = target: T15, peptide 32 (FIGURE 3 d/e); assay: as above
T15 construct: marked WK under the bar
T15 peptide: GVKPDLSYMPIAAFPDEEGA

[16] = target: T16, peptide 29 (FIGURE 3 d/e); assay: as above
T16 construct: marked MP under the bar
T16 peptide: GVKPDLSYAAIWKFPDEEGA

[17] = target: T17, peptide 38 (FIGURE 3 d/e); assay: as above
T17 peptide: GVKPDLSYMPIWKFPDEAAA

[18] = target: T18, peptide 23 (FIGURE 3 d/e); assay: as above
T18 peptide: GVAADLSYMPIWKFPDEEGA

[19] = target: T19, peptide 22 (FIGURE 3 d/e); assay: as above
T19 peptide: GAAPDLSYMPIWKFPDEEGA

peptide 6 (FIGURE 3 d/e) = target: T20, peptide 6 (FIGURE 3 d/e); assay: peptide array on cellulose membrane, truncation series, signal intensity (area under curve), duplicate spots
T20 peptide: LSYMPIWKFPDEEGA

[20] = target: T21, peptide 15 (FIGURE 3 d/e); assay: as above
T21 construct: also called PDEEGA
T21 peptide: PDEEGA

peptide 8 (FIGURE 3 d/e) = target: T22, peptide 8 (FIGURE 3 d/e); assay: as above
T22 peptide: YMPIWKFPDEEGA

Kd [1]: 2 nM
binding result [2]: binds
binding result [3]: binds
binding result [4]: binds
binding result [5]: binds
binding result [6]: binds
binding result [7]: binds
binding result [8]: binds
binding result [9]: binds
binding result [10]: binds
binding result [11]: binds
binding result [12]: no binding
binding result [13]: binds
binding result [14]: binds
binding result [15]: no binding
binding result [16]: binds
binding result [17]: binds
binding result [18]: binds
binding result [19]: binds
binding result (peptide 6 (FIGURE 3 d/e)): binds
binding result [20]: no binding
binding result (peptide 8 (FIGURE 3 d/e)): binds
B1: Oslo-2 antibody (monoclonal antibody against p95HER2) (antibody, V domains shown)
VH: EVQILETGGGLVKPGGSLRLSCATSGFNFNDYFMNWVRQAPGKGLEWIAQIRNKNYNYATYFAESLEGRFTISRDDSKSSVYLQVNSLRAEDTALYYCTELRYDYWGQGVMVTVSS
VL: DIVMTQSPFSLAVSEGEMVTINCKSSQSLLSSGNQKNNLAWYQQKPGQSPKLLIYYASTRQSGVPDRFIGSGSGTDFTLTISDVQAEDLADYYCLQHYSSPYTFGAGTKLELK
notes: Monoclonal antibody from a rat hybridoma (mClone 1), detected with goat anti-rat-PE; also called the antibody of interest; the antibody
